Laboratory results published in paper PMC9131392 (Biomacromolecules, 2021).
Values joined by “and” are separate entries in the source; they are usually repeats but may differ in a detail not shown here. Equal values may be shown once. Read-outs that look alike come from different tables or passages of the source.

Legend:
SEC-SAXS [1] = molecular target: the molecule itself; assay: SEC-SAXS
SEC-SAXS [2] = molecular target: the molecule itself; assay: SEC-SAXS; remark: listed apart in the source

B1: C-phycocyanin (αβ) monomer from Spirulina platensis (complex)
chain 1: not shown
chain 2: MFDAFTKVVSQADTRGEMLSTAQIDALSQMVAESNKRLDAVNRITSNASTIVSNAARSLFAEQPQLIAPGGNAYTSRRMAACLRDMEIILRYVTYAVFAGDASVLEDRCLNGLRETYLALGTPGSSVAVGVGKMKEAALAIVNDPAGITPGDCSALASEIASYFDRACAAVS
modifications: open-chain tetrapyrrole chromophore cofactors attached covalently | open-chain tetrapyrrole chromophore cofactors attached covalently
stoichiometry N (SEC-SAXS [1]): 3 | stoichiometry N (SEC-SAXS [2]): 12 and 24
